Experimental data taken from paper PMC12232663, “Molecular contacts in self-assembling clusters of membrane proteins” (Proceedings of the National Academy of Sciences of the …, 2025).

Target: the molecule itself
Assay: cryo-EM structure; single-particle reconstruction of purified channel reconstituted into POPC vesicles (protein:lipid 1:20, 10 mM Tris pH 8.0, 150 mM KCl); C4-symmetric map; monomers to tetramer

B1: Human HCN1 with a C-terminal truncation (residues 636 to 865) (natural protein, UniProt O60741 1-890, looked up)
chain: MEGGGKPNSSSNSRDDGNSVFPAKASATGAGPAAAEKRLGTPPGGGGAGAKEHGNSVCFKVDGGGGGGGGGGGGEEPAGGFEDAEGPRRQYGFMQRQFTSMLQPGVNKFSLRMFGSQKAVEKEQERVKTAGFWIIHPYSDFRFYWDLIMLIMMVGNLVIIPVGITFFTEQTTTPWIIFNVASDTVFLLDLIMNFRTGTVNEDSSEIILDPKVIKMNYLKSWFVVDFISSIPVDYIFLIVEKGMDSEVYKTARALRIVRFTKILSLLRLLRLSRLIRYIHQWEEIFHMTYDLASAVVRIFNLIGMMLLLCHWDGCLQFLVPLLQDFPPDCWVSLNEMVNDSWGKQYSYALFKAMSHMLCIGYGAQAPVSMSDLWITMLSMIVGATCYAMFVGHATALIQSLDSSRRQYQEKYKQVEQYMSFHKLPADMRQKIHDYYEHRYQGKIFDEENILNELNDPLREEIVNFNCRKLVATMPLFANADPNFVTAMLSKLRFEVFQPGDYIIREGAVGKKMYFIQHGVAGVITKSSKEMKLTDGSYFGEICLLTKGRRTASVRADTYCRLYSLSVDNFNEVLEEYPMMRRAFETVAIDRLDRIGKKNSILLQKFQKDLNTGVFNNQENEILKQIVKHDREMVQAALPRESSSVLNTDPDAEKPRFASNL
notes: source: HEK293S GnTI- cells (BacMam), purified (GFP-nanobody resin, SEC in LMNG:CHS), reconstituted into POPC vesicles
  stoichiometry N: 4
